Assay results taken from publication doi:10.1101/2020.08.07.234443 (bioRxiv, 2020).

T1: eIF4G1_(1-249) (S. cerevisiae, UniProt P39935 1-249)
T1 sequence (looked up): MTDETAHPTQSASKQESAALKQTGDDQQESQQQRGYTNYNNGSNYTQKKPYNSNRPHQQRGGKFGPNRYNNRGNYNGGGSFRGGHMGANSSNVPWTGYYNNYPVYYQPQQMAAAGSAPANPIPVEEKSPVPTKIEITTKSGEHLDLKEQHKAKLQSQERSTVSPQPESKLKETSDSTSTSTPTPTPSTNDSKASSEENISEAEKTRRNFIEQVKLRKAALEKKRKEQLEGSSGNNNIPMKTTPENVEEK


How the values were obtained:
eIF4G1_(1-249) = molecular target: T1, eIF4G1_(1-249); assay: NMR intermolecular paramagnetic relaxation enhancement
SAXS = molecular target: the molecule itself; assay: SAXS

Binder | binding result (eIF4G1_(1-249)) | stoichiometry N (SAXS)
spin-labeled eIF4G1_(1-249) Q109C (domain or fragment, S. cerevisiae, UniProt P39935 1-249, looked up, 4-(2-iodoacetamido)-TEMPO nitroxyl spin label on C109) MTDETAHPTQSASKQESAALKQTGDDQQESQQQRGYTNYNNGSNYTQKKPYNSNRPHQQRGGKFGPNRYNNRGNYNGGGSFRGGHMGANSSNVPWTGYYNNYPVYYQPCQMAAAGSAPANPIPVEEKSPVPTKIEITTKSGEHLDLKEQHKAKLQSQERSTVSPQPESKLKETSDSTSTSTPTPTPSTNDSKASSEENISEAEKTRRNFIEQVKLRKAALEKKRKEQLEGSSGNNNIPMKTTPENVEEK | binds | –
Pab1 RRM12 (domain or fragment) not shown | – | 2
